US20200181617, “CHEMICALLY MODIFIED RNA APTAMERS AND USES THEREOF” (ALBERT EINSTEIN COLLEGE OF MEDICINE, published 2020)

T1: LRIG1 (UniProt Q96JA1 Q96JA1:35-794)
T1 sequence: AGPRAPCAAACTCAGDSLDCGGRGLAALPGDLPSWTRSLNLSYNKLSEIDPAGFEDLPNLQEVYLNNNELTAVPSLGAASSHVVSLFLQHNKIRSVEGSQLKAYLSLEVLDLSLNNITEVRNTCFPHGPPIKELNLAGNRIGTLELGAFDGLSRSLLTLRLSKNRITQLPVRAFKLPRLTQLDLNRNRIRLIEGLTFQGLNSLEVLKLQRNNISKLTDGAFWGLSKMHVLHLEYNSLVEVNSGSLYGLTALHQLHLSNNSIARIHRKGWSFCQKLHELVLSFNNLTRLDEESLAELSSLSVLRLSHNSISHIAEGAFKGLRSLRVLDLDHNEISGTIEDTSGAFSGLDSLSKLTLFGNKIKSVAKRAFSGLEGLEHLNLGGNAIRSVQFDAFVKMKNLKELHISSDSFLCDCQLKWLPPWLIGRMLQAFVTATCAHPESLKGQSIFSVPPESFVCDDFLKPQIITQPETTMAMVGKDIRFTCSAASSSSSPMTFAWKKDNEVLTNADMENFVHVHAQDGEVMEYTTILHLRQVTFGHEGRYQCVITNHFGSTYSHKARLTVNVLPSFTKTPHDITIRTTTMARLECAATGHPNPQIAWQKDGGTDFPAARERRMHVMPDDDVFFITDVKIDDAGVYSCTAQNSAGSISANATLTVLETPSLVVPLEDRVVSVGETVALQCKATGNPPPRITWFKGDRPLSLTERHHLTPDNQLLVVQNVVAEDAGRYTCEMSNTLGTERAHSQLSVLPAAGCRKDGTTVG


Target: T1, LRIG1
Experiment: flow; apparent; protein on Dynal His beads; no signal on non-protein beads
Details: tags: His-tagged, immobilized on magnetic His-capture beads (Dynal His beads)
Procedure: Using a N40 library containing ˜10″ unique sequences, transcribed using a mixture of Phe-dUTP, 2′OMe ATP, 2′OMe CTP and 2′F GTP, SELEX was initiated against the protein LRIG1. In short, the His-tagged protein was immobilized on 1 μm, magnetic His-capture beads and incubated with the library for 30 minutes at 37° C. after which the beads were washed 3 times with buffer, and then any bound library molecules eluted by the addition of wash buffer containing the denaturant guanidine hydrochloride (4M). Following elution the library molecules were recovered by ethanol precipitation and reverse transcribed into DNA using SSIV under optimized conditions (2M betaine). The resulting ssDNA was then amplified by PCR and the resulting dsDNA then transcribed back in to modified RNA by transcription using the LAL-polymerase and a mixture of Phe-dUTP, 2′OMe ATP, 2′OMe CTP and 2′F GTP under the present optimized conditions. The process was repeated for 8 rounds of selection. A fluorescently labeled library was used to monitor the selection by flow cytometry. […] Importantly, when similar experiments were performed using non-protein target loaded beads, no signal over background was observed. […] Subsequent experiments were carried out to clone and sequence the round 6, 7 and 8 population and test individual molecules identified from the screen. […]

| Binder | Kd |
| --- | --- |
| Lrig1-Rd8-11 (clone 11) (XNA, 2'-F G; 2'-OMe A; 2'-OMe C; all T positions are 5-modified dU (Phe-dU)) DNA: GGGAAGGAGAGACGACGCGACACCCGCTTCACCGCTGTGTAACTGCGACGACGGACGTCAGATCAGCAGACAAGACCGGACAAGAAGC | ~35 nM |
| Lrig1-Rd8-08 (clone 8) (XNA, 2'-F G; 2'-OMe A; 2'-OMe C; all T positions are 5-modified dU (Phe-dU)) DNA: GGGAAGGAGAGACGACGCGACACCCCCTTGAGTCACAGGTGTGTGAGCGCCGACGGCTTGGTACAGCAGACAAGACCGGACAAGAAGC | ~25 nM |
